The supplement of paper PMC10126150
± gives the standard deviation of the averaged measurements.

These sequences were tested on ATP (assay: switch fluorescence ratio, 500 uM ATP over buffer (Cy3 cluster intensity, sum of 5 cycles each) (fold (ratio)); higher = stronger signal-on switching upon ATP binding; sequences stand for … in TCGTCGGCAGCGTCAGATGTGTATAAGAGACAGTTTTTTTTTTTTTTTTTTTTTTTTT…TC). Settings: aptamer strand: ATP DNA aptamer (quencher-CACCTGGGGGAGTATTGCGGAGGAAGG + anchor), 100 nM annealed; ATP concentration: 500 uM.
Method in brief: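 Switching-strand clusters labelled with Cy3 on a modified Illumina MiSeq flow-cell were annealed to 100 nM quencher-labelled ATP aptamer, imaged in selection buffer, and re-imaged after 15 min with 500 uM ATP at 22 °C. This was done over five cycles with NaOH stripping and re-annealing in between. The fluorescence ratio is summed target-cycle over summed buffer-cycle Cy3 intensity per cluster, averaged per switch-domain sequence, excluding clusters outside 100-1000 RFU.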
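Note: ATP exposure 15 min at 22 °C before imaging.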

| Sequence | switch fluorescence ratio |
| --- | --- |
| CCTTATGGGG | 1 ± 0.023 |
| CCTTATTTCT | 1 ± 0.031 |
| CCTTGCAGAT | 1.99 ± 0.78 |
| CCTTGGGGAA | 0.98 ± 0.013 |
| CCTTGGGGTG | 1.06 ± 0.14 |
| CCTTGTGGGA | 0.983 ± 0.011 |
| CCTTGTTTTT | 1.01 ± 0.01 |
| CCTTTAGATT | 1.01 ± 0.013 |
| CCTTTCACTC | 1.124 ± 0.0035 |
| CCTTTCAGGA | 0.9993 ± 0.0015 |
| CCTTTCGGGT | 0.982 ± 0.039 |
| CCTTTCGTGT | 1.19 ± 0.22 |
| CCTTTGCAGG | 2.45 ± 0.27 |
| CCTTTGCCCG | 1.07 ± 0.17 |
| CCTTTTGTGG | 1.015 ± 0.0068 |
| CGAAAAGGTG | 1.05 ± 0.054 |
| CGAAAATAAT | 0.9817 ± 0.0022 |
| CGAAAATATC | 0.989 ± 0.023 |
| CGAAAATGTA | 0.9772 ± 0.0089 |
| CGAAAGAAAT | 1.02 ± 0.031 |
| CGAAAGCAGG | 1.1681 ± 0.00099 |
| CGAAAGGTTG | 0.939 ± 0.017 |
| CGAAATGGCA | 1.03 ± 0.045 |
| CGAAATTACG | 1.04 ± 0.021 |
| CGAAGAAAGG | 1.16 ± 0.013 |

| Sequence | switch fluorescence ratio |
| --- | --- |
| CGAAGAGGCG | 0.997 ± 0.052 |
| CGAAGAGGTC | 1.02 ± 0.032 |
| CGAAGATCGA | 0.982 ± 0.042 |
| CGAAGCAGCG | 1.4 ± 0.044 |
| CGAAGCTTAT | 2.74 ± 0.53 |
| CGAAGGCTGT | 1.003 ± 0.0095 |
| CGAAGGGGTG | 0.9749 ± 0.0032 |
| CGAAGTTGAC | 1.63 ± 0.13 |
| CGAAGTTTCG | 1.02 ± 0.017 |
| CGAAGTTTTT | 0.998 ± 0.004 |
| CGAATAAGAA | 0.9383 ± 0.0074 |
| CGAATATAGC | 1.02 ± 0.015 |
| CGAATCCAGG | 2.46 ± 0.062 |
| CGAATCCATT | 0.9869 ± 0.0033 |
| CGAATCCCCA | 1.07 ± 0.032 |
| CGAATCGGTA | 0.969 ± 0.00014 |
| CGAATCGGTG | 1.01 ± 0.019 |
| CGAATGGGAC | 1.042 ± 0.007 |
| CGAATGGGTT | 0.965 ± 0.011 |
| CGAATGTTGG | 0.99 ± 0.041 |
| CGAATTAGGT | 1.03 ± 0.019 |
| CGACAAGCTT | 1.03 ± 0.016 |
| CGACAATCAT | 1.039 ± 0.0036 |
| CGACAGCGGC | 2.11 ± 0.094 |
| CGACATATCC | 1.12 ± 0.027 |

| Sequence | switch fluorescence ratio |
| --- | --- |
| CGACATGGTC | 1.02 ± 0.015 |
| CGACCACGTA | 1.12 ± 0.029 |
| CGACGAGTAA | 1.32 ± 0.36 |
| CGACGATCGT | 0.971 ± 0.028 |
| CGACGATGAC | 5.46 ± 0.077 |
| CGACGATTTG | 1.01 ± 0.026 |
| CGACGCGGTA | 3.14 ± 0.059 |
| CGACGCTTGT | 3.15 ± 0.38 |
| CGACGGGGCT | 1.13 ± 0.049 |
| CGACGGGTTT | 1.08 ± 0.035 |
| CGACGTTCGC | 1.48 ± 0.037 |
| CGACTACTTT | 1.05 ± 0.031 |
| CGACTAGGAA | 1.04 ± 0.023 |
| CGACTAGGGG | 1.01 ± 0.024 |
| CGACTGGGGG | 0.957 ± 0.026 |
| CGACTTGGAA | 1.02 ± 0.036 |
| CGAGACTAGT | 1.01 ± 0.063 |
| CGAGACTTAT | 0.996 ± 0.013 |
| CGAGATTTGT | 1.011 ± 0.0097 |
| CGAGCAGTGG | 1.1 ± 0.034 |
| CGAGCCAGAT | 1.04 ± 0.028 |
| CGAGCGGAAG | 1.03 ± 0.032 |
| CGAGCTTGAG | 0.99 ± 0.002 |
| CGAGGAAGGG | 1.01 ± 0.021 |
| CGAGGACGGG | 1 ± 0.029 |

| Sequence | switch fluorescence ratio |
| --- | --- |
| CGAGGATAAC | 1.03 ± 0.043 |
| CGAGGATGT | 1.01 ± 0.011 |
| CGAGGCACAG | 1.53 ± 0.052 |
| CGAGGCTAGG | 1.07 ± 0.021 |
| CGAGGGAACG | 1 ± 0.04 |
| CGAGGGACTG | 0.984 ± 0.0099 |
| CGAGGGATGG | 0.977 ± 0.05 |
| CGAGGGGAGG | 1.05 ± 0.028 |
| CGAGGGGGA | 1.0066 ± 0.00091 |
| CGAGGGGGTG | 1.02 ± 0.055 |
| CGAGGGTTGG | 1.02 ± 0.018 |
| CGAGTAAAAT | 1.08 ± 0.1 |
| CGAGTAGGGA | 0.995 ± 0.021 |
| CGAGTAGTAG | 1.03 ± 0.059 |
| CGAGTCCATC | 0.955 ± 0.012 |
| CGAGTCCCAC | 1 ± 0.12 |
| CGAGTCCGTT | 0.99 ± 0.018 |
| CGAGTGGATG | 0.994 ± 0.018 |
| CGAGTTGGTA | 1.01 ± 0.025 |
| CGAGTTTGAC | 0.977 ± 0.019 |
| CGATACGTGG | 1.02 ± 0.042 |
| CGATAGGGGC | 1.08 ± 0.14 |
| CGATAGTTGT | 1.27 ± 0.38 |
| CGATATATGA | 1.02 ± 0.019 |
| CGATATGTAG | 1.016 ± 0.0045 |
